Experimental data published in US20040234530.

T1: C1-esterase inhibitor (human plasma protease C1 inhibitor), purified or in human serum, P05155
T1 chain: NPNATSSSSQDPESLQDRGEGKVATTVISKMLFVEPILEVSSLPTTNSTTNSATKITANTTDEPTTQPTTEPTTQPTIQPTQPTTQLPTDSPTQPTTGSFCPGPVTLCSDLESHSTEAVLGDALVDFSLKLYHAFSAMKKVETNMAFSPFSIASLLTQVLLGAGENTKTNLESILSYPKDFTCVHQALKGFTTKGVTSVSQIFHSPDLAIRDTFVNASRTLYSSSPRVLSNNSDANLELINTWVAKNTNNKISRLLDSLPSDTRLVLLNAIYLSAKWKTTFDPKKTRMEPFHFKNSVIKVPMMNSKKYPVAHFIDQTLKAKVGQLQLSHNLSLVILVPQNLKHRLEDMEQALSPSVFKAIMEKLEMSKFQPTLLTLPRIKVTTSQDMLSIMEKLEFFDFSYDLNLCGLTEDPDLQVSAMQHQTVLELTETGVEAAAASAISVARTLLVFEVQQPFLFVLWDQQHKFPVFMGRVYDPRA

T2: α2-antiplasmin (Calbiochem, San Diego, CA), P08697
T2 chain: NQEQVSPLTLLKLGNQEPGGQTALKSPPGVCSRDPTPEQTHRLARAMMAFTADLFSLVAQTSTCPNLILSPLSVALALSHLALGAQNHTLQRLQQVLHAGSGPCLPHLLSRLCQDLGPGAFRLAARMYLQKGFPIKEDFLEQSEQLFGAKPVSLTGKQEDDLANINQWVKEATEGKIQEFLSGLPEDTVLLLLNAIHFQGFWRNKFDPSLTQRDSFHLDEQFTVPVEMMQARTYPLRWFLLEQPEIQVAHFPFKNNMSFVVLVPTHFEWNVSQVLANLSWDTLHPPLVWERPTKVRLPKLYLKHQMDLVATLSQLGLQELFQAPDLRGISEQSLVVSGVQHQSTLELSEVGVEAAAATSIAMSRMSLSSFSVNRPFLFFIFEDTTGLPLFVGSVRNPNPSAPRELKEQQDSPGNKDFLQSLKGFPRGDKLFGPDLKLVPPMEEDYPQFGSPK

T3: α2-macroglobulin (Calbiochem, San Diego, CA), P01023
T3 chain: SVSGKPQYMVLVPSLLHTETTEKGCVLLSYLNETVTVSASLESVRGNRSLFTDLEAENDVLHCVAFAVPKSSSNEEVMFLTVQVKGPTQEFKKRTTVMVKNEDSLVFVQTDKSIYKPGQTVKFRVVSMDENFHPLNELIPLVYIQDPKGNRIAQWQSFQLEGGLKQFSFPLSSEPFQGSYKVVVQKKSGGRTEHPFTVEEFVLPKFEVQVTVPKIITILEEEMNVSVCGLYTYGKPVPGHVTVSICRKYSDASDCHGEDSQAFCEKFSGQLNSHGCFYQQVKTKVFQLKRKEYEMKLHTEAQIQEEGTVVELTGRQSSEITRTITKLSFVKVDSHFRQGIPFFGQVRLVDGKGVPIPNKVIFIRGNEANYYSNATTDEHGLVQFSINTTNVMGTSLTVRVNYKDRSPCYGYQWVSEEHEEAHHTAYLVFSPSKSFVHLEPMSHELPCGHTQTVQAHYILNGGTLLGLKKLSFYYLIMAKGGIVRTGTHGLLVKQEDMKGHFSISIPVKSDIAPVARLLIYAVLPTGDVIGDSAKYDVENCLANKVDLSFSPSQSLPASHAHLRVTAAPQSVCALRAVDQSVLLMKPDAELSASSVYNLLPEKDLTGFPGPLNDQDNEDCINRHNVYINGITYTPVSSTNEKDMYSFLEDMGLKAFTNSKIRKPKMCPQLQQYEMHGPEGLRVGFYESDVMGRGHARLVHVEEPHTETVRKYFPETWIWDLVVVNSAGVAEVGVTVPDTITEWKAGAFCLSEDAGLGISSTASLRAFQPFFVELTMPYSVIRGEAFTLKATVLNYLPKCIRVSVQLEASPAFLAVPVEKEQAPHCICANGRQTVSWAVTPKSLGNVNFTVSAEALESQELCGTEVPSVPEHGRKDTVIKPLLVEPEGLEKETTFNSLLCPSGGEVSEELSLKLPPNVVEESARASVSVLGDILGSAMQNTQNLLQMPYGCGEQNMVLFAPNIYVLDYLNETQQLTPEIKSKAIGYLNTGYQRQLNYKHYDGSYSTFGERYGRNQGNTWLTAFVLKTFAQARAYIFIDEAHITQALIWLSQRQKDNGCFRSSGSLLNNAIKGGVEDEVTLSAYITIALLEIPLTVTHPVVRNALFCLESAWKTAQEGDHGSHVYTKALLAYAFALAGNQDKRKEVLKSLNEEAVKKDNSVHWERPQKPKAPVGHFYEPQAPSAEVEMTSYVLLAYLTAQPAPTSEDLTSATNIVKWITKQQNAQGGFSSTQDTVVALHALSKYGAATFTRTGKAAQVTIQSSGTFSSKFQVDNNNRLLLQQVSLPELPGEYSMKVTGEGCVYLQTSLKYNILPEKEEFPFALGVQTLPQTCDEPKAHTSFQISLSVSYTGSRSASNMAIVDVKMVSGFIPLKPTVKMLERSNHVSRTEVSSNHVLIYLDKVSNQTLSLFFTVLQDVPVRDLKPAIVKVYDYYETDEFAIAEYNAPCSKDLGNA

T4: α1-antichymotrypsin (Sigma, St. Louis, MO), P01011
T4 chain: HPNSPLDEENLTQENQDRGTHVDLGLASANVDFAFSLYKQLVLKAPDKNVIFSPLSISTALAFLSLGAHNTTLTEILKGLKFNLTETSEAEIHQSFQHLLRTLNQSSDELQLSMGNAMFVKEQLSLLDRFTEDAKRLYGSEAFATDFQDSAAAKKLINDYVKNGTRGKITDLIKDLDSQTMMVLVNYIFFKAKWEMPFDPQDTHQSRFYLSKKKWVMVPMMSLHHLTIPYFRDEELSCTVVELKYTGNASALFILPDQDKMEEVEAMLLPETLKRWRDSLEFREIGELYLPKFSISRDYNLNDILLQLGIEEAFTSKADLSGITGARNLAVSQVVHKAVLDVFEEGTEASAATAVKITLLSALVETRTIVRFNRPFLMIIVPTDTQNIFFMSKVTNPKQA

T5: recombinant, full-length human C1-INH (hC1-INH) expressed in COS-7 cells, 35S-methionine-labeled, P05155
T5 chain: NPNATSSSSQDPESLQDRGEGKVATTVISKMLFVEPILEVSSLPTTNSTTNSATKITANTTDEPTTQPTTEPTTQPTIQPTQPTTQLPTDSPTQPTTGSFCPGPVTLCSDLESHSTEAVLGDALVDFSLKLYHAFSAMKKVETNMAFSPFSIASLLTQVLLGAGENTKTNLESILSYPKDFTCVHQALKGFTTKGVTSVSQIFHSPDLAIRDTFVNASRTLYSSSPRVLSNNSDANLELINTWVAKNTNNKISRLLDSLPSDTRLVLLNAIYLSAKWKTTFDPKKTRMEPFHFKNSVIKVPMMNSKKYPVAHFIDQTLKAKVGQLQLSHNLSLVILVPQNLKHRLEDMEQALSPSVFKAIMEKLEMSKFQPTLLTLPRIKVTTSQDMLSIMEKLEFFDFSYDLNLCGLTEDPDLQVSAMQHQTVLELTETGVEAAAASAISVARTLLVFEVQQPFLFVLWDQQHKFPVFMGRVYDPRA

T6: C-serp(98), a recombinant C1-INH molecule lacking the N-terminal amino acids 1-97 and containing only the serpin domain, P05155
T6 chain: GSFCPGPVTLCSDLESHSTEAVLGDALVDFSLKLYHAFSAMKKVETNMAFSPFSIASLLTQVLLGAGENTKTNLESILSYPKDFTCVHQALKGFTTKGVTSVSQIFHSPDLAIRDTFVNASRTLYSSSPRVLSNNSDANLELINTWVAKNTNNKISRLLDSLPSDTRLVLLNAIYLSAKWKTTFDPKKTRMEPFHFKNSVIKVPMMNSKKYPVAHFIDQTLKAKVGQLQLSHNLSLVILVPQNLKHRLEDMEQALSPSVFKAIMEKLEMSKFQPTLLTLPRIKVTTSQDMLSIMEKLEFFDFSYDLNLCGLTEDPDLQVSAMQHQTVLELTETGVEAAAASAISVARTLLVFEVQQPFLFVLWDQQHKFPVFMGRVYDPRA

B1: StcE-His (recombinant his-tagged form of StcE, from pWL107 in BL21(DE3), strain WAM2572) (protein)
chain: ADNNSAIYFNTSQPINDLQGSLAAEVKFAQSQILPAHPKEGDSQPHLTSLRKSLLLVRPVKADDKTPVQVEARDDNNKILGTLTLYPPSSLPDTIYHLDGVPEGGIDFTPHNGTKKIINTVAEVNKLSDASGSSIHSHLTNNALVEIHTANGRWVRDIYLPQGPDLEGKMVRFVSSAGYSSTVFYGDRKVTLSVGNTLLFKYVNGQWFRSGELENNRITYAQHIWSAELPAHWIVPGLNLVIKQGNLSGRLNDIKIGAPGELLLHTIDIGMLTTPRDRFDFAKDKEAHREYFQTIPVSRMIVNNYAPLHLKEVMLPTGELLTDMDPGNGGWHSGTMRQRIGKELVSHGIDNANYGLNSTAGLGENSHPYVVAQLAAHNSRGNYANGIQVHGGSGGGGIVTLDSTLGNEFSHEVGHNYGLGHYVDGFKGSVHRSAENNNSTWGWDGDKKRFIPNFYPSQTNEKSCLNNQCQEPFDGHKFGFDAMAGGSPFSAANRFTMYTPNSSAIIQRFFENKAVFDSRSSTGFSKWNADTQEMEPYEHTIDRAEQITASVNELSESKMAELMAEYAVVKVHMWNGNWTRNIYIPTASADNRGSILTINHEAGYNSYLFINGDEKVVSQGYKKSFVSDGQFWKERDVVDTREARKPEQFGVPVTTLVGYYDPEGTLSSYIYPAMYGAYGFTYSDDSQNLSDNDCQLQVDTKEGQLRFRLANHRANNTVMNKFHINVPTESQPTQATLVCNNKILDTKSLTPAPEGLTYTVNGQALPAKENEGCIVSVNSGKRYCLPVGQRSGYSLPDWIVGQEVYVDSGAKAKVLLSDWDNLSYNRIGEFVGNVNPADMKKVKAWNGQYLDFSKPRSMRVVYKHHHHHH
B2: StcE′-His (lacking the StcE N-terminal signal sequence, 6xHis tag at the C-terminus; from pTB4, strain WAM2751) (protein)
chain: ADNNSAIYFNTSQPINDLQGSLAAEVKFAQSQILPAHPKEGDSQPHLTSLRKSLLLVRPVKADDKTPVQVEARDDNNKILGTLTLYPPSSLPDTIYHLDGVPEGGIDFTPHNGTKKIINTVAEVNKLSDASGSSIHSHLTNNALVEIHTANGRWVRDIYLPQGPDLEGKMVRFVSSAGYSSTVFYGDRKVTLSVGNTLLFKYVNGQWFRSGELENNRITYAQHIWSAELPAHWIVPGLNLVIKQGNLSGRLNDIKIGAPGELLLHTIDIGMLTTPRDRFDFAKDKEAHREYFQTIPVSRMIVNNYAPLHLKEVMLPTGELLTDMDPGNGGWHSGTMRQRIGKELVSHGIDNANYGLNSTAGLGENSHPYVVAQLAAHNSRGNYANGIQVHGGSGGGGIVTLDSTLGNEFSHEVGHNYGLGHYVDGFKGSVHRSAENNNSTWGWDGDKKRFIPNFYPSQTNEKSCLNNQCQEPFDGHKFGFDAMAGGSPFSAANRFTMYTPNSSAIIQRFFENKAVFDSRSSTGFSKWNADTQEMEPYEHTIDRAEQITASVNELSESKMAELMAEYAVVKVHMWNGNWTRNIYIPTASADNRGSILTINHEAGYNSYLFINGDEKVVSQGYKKSFVSDGQFWKERDVVDTREARKPEQFGVPVTTLVGYYDPEGTLSSYIYPAMYGAYGFTYSDDSQNLSDNDCQLQVDTKEGQLRFRLANHRANNTVMNKFHINVPTESQPTQATLVCNNKILDTKSLTPAPEGLTYTVNGQALPAKENEGCIVSVNSGKRYCLPVGQRSGYSLPDWIVGQEVYVDSGAKAKVLLSDWDNLSYNRIGEFVGNVNPADMKKVKAWNGQYLDFSKPRSMRVVYKHHHHHH
B3: Pseudomonas aeruginosa elastase (Calbiochem EC# 3.4.24.26) (protein)
chain: AEAGGPGGNQKIGKYTYGSDYGPLIVNDRCEMDDGNVITVDMNSSTDDSKTTPFRFACPTNTYKQVNGAYSPLNDAHFFGGVVFKLYRDWFGTSPLTHKLYMKVHYGRSVENAYWDGTAMLFGDGATMFYPLVSLDVAAHEVSHGFTEQNSGLIYRGQSGGMNEAFSDMAGEAAEFYMRGKNDFLIGYDIKKGSGALRYMDQPSRDGRSIDNASQYYNGIDVHHSSGVYNRAFYLLANSPGWDTRKAFEVFVDANRYYWTATSNYNSGACGVIRSAQNRNYSAADVTRAFSTVGVTCPSAL

Key:
[1] = target: Gelatin (BioRad, Hercules, CA)
[2] = target: T1, C1-esterase inhibitor (human plasma …)
[3] = target: T2, α2-antiplasmin (Calbiochem, San Diego, …)
[4] = target: von Willebrand factor (gift from Dr. D. Mosher, UW-Madison), P04275
[5] = target: T3, α2-macroglobulin (Calbiochem, San …)
[6] = target: Elastin (Sigma, St. Louis, MO)
[7] = target: collagen IV (Rockland, Gilbertsville, PA)
[8] = target: T4, α1-antichymotrypsin (Sigma, St. Louis, …)
[9] = target: BODIPY FL-conjugated casein (EnzChek Protease Assay Kit, Molecular Probes)
[10] = target: serum albumin (New England Biolabs, Beverly, MA)
[11] = target: fibronectin (Calbiochem, San Diego, CA), P02751
[12] = target: α1-antitrypsin (Sigma, St. Louis, MO), P01009
[13] = target: antithrombin (Enzyme Research Labs, South Bend, IN), P01008
[14] = target: T5, recombinant, full-length human C1-INH …
[15] = target: T6, C-serp(98), a recombinant C1-INH …

α1-antitrypsin (Sigma, St. Louis, MO), P01009, sequence (P01009 whole entry, looked up): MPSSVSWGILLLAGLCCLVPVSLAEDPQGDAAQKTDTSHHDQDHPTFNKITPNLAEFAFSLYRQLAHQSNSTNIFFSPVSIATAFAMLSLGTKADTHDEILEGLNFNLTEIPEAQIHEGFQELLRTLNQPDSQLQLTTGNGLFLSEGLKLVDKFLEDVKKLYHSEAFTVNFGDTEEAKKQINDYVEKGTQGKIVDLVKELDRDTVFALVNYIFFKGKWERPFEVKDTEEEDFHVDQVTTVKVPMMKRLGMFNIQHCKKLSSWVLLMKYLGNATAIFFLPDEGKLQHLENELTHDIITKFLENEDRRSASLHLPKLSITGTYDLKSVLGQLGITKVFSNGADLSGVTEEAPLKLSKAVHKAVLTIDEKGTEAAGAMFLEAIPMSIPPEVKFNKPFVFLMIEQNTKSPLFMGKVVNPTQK
fibronectin (Calbiochem, San Diego, CA), P02751, sequence (P02751 32-2477): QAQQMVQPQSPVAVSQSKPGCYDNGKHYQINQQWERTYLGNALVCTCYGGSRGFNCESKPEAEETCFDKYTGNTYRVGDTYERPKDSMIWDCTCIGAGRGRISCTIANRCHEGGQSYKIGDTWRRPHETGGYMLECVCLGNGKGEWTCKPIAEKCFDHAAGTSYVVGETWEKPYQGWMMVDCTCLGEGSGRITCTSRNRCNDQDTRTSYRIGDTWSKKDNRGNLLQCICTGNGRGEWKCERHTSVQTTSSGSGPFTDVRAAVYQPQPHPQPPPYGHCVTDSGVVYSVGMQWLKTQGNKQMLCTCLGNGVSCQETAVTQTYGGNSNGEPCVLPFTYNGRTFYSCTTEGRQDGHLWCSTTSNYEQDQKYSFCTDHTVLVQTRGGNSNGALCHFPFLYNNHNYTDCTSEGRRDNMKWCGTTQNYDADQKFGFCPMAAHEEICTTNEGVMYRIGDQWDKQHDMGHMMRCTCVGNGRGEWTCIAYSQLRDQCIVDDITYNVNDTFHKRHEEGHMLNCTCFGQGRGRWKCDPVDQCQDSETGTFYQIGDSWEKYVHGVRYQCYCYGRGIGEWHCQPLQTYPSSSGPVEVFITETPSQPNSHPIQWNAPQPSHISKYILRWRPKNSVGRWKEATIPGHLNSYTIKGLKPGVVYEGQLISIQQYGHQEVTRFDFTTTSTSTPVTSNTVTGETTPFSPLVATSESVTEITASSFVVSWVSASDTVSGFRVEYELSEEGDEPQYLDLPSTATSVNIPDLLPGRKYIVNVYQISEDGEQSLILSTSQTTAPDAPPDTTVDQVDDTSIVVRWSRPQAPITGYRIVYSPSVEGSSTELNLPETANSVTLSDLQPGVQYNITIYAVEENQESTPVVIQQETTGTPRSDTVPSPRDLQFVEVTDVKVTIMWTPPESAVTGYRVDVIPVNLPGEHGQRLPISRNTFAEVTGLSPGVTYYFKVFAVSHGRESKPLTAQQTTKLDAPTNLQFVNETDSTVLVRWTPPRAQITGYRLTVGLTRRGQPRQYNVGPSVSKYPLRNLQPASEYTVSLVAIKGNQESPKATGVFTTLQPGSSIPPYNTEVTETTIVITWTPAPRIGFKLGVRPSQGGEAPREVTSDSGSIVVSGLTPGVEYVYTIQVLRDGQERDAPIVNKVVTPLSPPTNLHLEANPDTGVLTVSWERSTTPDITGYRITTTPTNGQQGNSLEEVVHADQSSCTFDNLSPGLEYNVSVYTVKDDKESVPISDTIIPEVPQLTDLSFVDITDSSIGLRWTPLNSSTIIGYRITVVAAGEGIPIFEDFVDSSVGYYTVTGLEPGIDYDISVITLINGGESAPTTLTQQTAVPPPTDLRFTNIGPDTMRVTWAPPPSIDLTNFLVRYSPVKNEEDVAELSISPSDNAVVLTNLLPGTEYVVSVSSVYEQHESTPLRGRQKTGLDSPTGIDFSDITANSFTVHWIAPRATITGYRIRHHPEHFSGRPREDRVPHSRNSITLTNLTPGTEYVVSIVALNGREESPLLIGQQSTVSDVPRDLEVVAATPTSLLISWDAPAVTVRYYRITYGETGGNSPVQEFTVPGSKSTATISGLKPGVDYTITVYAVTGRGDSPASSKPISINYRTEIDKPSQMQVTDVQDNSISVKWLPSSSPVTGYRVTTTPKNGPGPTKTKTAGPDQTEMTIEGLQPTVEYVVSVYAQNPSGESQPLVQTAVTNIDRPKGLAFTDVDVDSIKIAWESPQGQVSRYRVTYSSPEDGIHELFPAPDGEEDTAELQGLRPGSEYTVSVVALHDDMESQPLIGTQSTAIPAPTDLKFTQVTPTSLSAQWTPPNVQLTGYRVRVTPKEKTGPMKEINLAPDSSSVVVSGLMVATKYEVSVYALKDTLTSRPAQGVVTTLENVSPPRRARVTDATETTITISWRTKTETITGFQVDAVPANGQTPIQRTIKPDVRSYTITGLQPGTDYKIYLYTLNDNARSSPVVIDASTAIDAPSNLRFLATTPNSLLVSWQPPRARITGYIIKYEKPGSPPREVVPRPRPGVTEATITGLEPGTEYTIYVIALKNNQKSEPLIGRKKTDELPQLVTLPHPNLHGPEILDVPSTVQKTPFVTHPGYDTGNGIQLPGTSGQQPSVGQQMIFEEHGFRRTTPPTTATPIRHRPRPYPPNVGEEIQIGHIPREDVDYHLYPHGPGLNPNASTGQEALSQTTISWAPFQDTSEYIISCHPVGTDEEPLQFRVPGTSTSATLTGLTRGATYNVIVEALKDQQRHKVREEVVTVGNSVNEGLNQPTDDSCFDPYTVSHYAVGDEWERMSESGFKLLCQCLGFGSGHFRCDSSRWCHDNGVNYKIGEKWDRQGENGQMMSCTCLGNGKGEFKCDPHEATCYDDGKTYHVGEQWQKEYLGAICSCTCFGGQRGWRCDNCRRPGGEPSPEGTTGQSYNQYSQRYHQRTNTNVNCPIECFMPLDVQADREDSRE
antithrombin (Enzyme Research Labs, South Bend, IN), P01008, sequence (P01008 whole entry, looked up): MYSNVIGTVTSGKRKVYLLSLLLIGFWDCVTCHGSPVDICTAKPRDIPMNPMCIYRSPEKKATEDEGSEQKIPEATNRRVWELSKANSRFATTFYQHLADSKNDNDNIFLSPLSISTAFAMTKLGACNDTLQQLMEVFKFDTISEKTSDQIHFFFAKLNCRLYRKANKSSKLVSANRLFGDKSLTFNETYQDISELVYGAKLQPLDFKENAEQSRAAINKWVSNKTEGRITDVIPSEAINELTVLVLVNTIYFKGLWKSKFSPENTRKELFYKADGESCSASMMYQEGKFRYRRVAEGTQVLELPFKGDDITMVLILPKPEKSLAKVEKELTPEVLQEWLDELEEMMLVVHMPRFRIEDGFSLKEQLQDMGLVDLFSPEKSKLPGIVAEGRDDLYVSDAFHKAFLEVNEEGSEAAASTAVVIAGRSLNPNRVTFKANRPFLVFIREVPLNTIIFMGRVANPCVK

| Protein | Proteolysis of substrates [1] | Proteolysis of substrates [2] | Proteolysis of substrates [3] | Proteolysis of substrates [4] | Proteolysis of substrates [5] | Proteolysis of substrates [6] | Proteolysis of substrates [7] | Proteolysis of substrates [8] | fluorescent measurement of casein degradation [9] | Proteolysis of substrates [10] | Proteolysis of substrates [11] | Proteolysis of substrates [12] | Proteolysis of substrates [13] | cleavage of 35S-labeled recombinant protein (immunoprecipitation, SDS-PAGE) [14] | cleavage of 35S-labeled recombinant protein (immunoprecipitation, SDS-PAGE) [15] |
| --- | --- | --- | --- | --- | --- | --- | --- | --- | --- | --- | --- | --- | --- | --- | --- |
| B1 | - | + | - | - | - | - | - | - | StcE-His was unable to degrade casein even at high protein concentrations (up to 6.4 µg/unit of volume) | - | - | - | - |  |  |
| B2 |  |  |  |  |  |  |  |  |  |  |  |  |  | only hC1-INH was cleaved by StcE′-His | C-serp(98) was unaffected by the protease |
| B3 | + | + | + |  | + | + | - | + | elastase was able to act on casein at lower concentrations (range: 0.5 ng to 1 µg/unit of volume) |  | + | + | + |  |  |
